# Experimental data published in patent publication EP4806921A1 (Daan Biotherapeutics, Inc., dated 2026).
# T1: CEACAM5 protein (Acrobiosystems) (UniProt P06731 35-685)
# T1 construct: also called CEACAM5 full-length protein
# T1 sequence (looked up): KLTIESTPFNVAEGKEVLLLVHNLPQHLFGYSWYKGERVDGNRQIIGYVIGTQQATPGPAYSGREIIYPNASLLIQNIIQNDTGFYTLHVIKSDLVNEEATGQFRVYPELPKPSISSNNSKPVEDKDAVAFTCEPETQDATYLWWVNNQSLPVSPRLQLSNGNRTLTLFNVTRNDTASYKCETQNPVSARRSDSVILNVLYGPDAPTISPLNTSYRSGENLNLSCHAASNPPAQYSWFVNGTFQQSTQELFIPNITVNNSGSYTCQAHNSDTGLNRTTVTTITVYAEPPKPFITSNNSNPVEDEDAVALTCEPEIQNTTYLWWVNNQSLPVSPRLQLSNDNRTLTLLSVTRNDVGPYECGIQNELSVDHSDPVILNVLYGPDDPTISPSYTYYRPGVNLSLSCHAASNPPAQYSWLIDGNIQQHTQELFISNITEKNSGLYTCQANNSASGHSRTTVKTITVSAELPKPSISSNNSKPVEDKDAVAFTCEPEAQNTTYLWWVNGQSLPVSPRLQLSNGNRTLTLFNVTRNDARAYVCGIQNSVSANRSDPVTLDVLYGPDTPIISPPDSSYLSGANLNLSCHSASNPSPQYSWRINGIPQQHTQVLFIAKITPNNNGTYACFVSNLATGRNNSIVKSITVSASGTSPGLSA
# Target: T1, CEACAM5 protein (Acrobiosystems)
# Assay: ELISA on coated CEACAM5 protein (Acrobiosystems), antibody 200 nM to 0.0004 nM
row,Binder,binding result
1,"humanized 94E12E2-04 antibody (antibody, V domains shown) VH: EVQLVESGGGLVQPGGSLRLSCAASGFNIKDNYMHWVRQAPGKGLEWIGWIDPENGDTEYDPKFQGRATMSADTSKNTAYLQMNSLRAEDTAVYYCNIITMATPYPMDYWGQGTLVTVSS VL: DIQLTQSPSSLSASVGDRVTITCSASTSVIYMHWFQQKPGKAPKLWIYSTSNLASGVPSRFSGSGSGTDYTLTISSLQPEDFATYYCQQRSSYPLTFGQGTKVEIKR",binds
2,"humanized 94E12E2-06 antibody (antibody, V domains shown) VH: QVQLVQSGAEVKKPGASVKVSCKASGFNIKDNYMHWVRQAPGQGLEWIGWIDPENGDTEYDPKFQGRATMTADTSISTAYMELSRLRSDDTAVYYCNIITMATPYPMDYWGQGTLVTVSS VL: EIVLTQSPDFQSVTPKEKVTITCSASTSVIYMHWFQQKPDQSPKLWIYSTSNLASGVPSRFSGSGSGTDYTLTINSLEAEDAATYYCQQRSSYPLTFGQGTKLEIKR",binds
